Stoichiometry N data for 1 substance are collected here from PMC11167044.

The target of this assay is PKM2 in SW480 cells (human (endogenous in SW480)) (UniProt P14618). Description: cross-linking; PKM2 cross-linked in SW480 cells expressing MYG1 variants, following ref. 37; SDS-PAGE and western blot.

PKM2 in SW480 cells, P14618 1-531 (enzyme; other documents disagree on this pair), sequence (P14618 whole entry): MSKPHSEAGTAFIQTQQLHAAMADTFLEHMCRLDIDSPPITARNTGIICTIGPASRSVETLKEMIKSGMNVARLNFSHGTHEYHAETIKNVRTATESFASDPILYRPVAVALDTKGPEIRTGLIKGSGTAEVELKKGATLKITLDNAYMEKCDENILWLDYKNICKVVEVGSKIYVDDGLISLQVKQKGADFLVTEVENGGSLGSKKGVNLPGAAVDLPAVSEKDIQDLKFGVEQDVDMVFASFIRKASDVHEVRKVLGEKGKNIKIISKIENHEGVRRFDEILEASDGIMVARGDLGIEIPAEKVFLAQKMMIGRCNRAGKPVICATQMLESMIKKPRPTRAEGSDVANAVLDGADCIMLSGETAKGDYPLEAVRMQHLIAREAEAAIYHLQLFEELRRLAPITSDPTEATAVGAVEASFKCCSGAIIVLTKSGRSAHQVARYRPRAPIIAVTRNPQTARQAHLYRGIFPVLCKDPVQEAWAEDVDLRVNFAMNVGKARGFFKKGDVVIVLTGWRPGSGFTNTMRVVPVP

With “PKM2 in SW480 cells, P14618 1-531 (enzyme; other documents disagree on this pair)”, the stoichiometry N came out at 2.

As a reminder, the stoichiometry N is a count of units in the complex or per binding partner.
